Assay results published in publication PMC4096120 (Science signaling, 2013).

Molecular target: eGFP-DGKζ (fusion of enhanced green fluorescent protein and diacylglycerol kinase ζ) (UniProt Q80UP3 1-929)
Assay: co-IP

eGFP-DGKζ (fusion of enhanced green fluorescent protein and diacylglycerol kinase ζ), sequence (Q80UP3 whole entry, the tested form may be a part): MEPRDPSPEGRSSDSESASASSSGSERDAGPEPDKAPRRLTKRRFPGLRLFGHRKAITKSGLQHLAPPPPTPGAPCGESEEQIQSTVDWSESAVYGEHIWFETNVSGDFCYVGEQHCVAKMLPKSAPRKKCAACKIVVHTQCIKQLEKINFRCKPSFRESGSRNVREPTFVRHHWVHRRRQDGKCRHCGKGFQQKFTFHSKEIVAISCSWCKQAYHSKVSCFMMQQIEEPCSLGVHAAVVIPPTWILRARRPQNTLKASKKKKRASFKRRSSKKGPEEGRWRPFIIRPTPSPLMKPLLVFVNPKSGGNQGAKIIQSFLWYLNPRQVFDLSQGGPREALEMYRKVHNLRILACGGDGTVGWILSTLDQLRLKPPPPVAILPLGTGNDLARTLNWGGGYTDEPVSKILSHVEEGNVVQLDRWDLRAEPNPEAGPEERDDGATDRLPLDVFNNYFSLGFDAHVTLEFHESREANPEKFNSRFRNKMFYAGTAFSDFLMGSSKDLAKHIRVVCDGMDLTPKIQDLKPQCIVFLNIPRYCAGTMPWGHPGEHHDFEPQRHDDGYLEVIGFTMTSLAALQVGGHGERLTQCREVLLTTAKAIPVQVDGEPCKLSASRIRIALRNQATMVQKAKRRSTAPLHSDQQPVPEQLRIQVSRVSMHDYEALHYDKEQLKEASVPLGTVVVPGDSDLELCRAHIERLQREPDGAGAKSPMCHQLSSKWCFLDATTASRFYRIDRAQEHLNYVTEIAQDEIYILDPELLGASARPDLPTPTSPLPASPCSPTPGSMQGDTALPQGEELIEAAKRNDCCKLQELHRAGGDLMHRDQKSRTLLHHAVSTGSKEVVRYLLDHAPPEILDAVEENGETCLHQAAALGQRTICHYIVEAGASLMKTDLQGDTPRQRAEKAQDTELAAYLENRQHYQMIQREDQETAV

B1: RasGRP1 (Ras guanyl nucleotide-releasing protein 1), from pEF6-huRasGRP1-myc/His wild-type plasmid (natural protein, human, UniProt O95267 1-797, looked up)
chain: MGTLGKAREAPRKPSHGCRAASKARLEAKPANSPFPSHPSLAHITQFRMMVSLGHLAKGASLDDLIDSCIQSFDADGNLCRSNQLLQVMLTMHRIVISSAELLQKVITLYKDALAKNSPGLCLKICYFVRYWITEFWVMFKMDASLTDTMEEFQELVKAKGEELHCRLIDTTQINARDWSRKLTQRIKSNTSKKRKVSLLFDHLEPEELSEHLTYLEFKSFRRISFSDYQNYLVNSCVKENPTMERSIALCNGISQWVQLMVLSRPTPQLRAEVFIKFIQVAQKLHQLQNFNTLMAVIGGLCHSSISRLKETSSHVPHEINKVLGEMTELLSSSRNYDNYRRAYGECTDFKIPILGVHLKDLISLYEAMPDYLEDGKVNVHKLLALYNHISELVQLQEVAPPLEANKDLVHLLTLSLDLYYTEDEIYELSYAREPRNHRAPPLTPSKPPVVVDWASGVSPKPDPKTISKHVQRMVDSVFKNYDHDQDGYISQEEFEKIAASFPFSFCVMDKDREGLISRDEITAYFMRASSIYSKLGLGFPHNFQETTYLKPTFCDNCAGFLWGVIKQGYRCKDCGMNCHKQCKDLVVFECKKRAKNPVAPTENNTSVGPVSNLCSLGAKDLLHAPEEGPFTFPNGEAVEHGEESKDRTIMLMGVSSQKISLRLKRAVAHKATQTESQPWIGSEGPSGPFVLSSPRKTAQDTLYVLPSPTSPCPSPVLVRKRAFVKWENKDSLIKSKEELRHLRLPTYQELEQEINTLKADNDALKIQLKYAQKKIESLQLEKSNHVLAQMEQGDCS
B1 was tested, and the “fold binding relative to DGKα” value was ≤ 3 fold.
